Test results taken from the supplement of paper PMC7877785.
± gives the uncertainty stated by the source.

Assay: self-splicing fitness, log relative to wild type (ln ratio); higher = more splicing; Tetrahymena group I intron in knt gene, E. coli kanamycin selection, DiMSum; sequences stand for … in CUCUCU…GGAGGGAAAAGUUAUCAGGCAUGCACCUGGUAGCUAGUCUUUAAACCAAUAGAUUGCAUCGGUUUAAAAGGCAAGACCGUCAAAUUGCGGGAAAGGGGUCAACAGCCGUUCAGUACCAAGUCUCAGGGGAAACUUUGAGAUGGCCUUGCAAAGGGUAUGGUAAUAAGCUGACGGACAUGGUCCUAACCACGCAGCCAAGUCCUAAGUCAACAGAUCUUCUGUUGAUAUGGAUGCAGUUCACAGACUAAAUGUCGGUCGGGGAAGAUGUAUUCUUCUCAUAAGAUAUAGUCGGACCUCUCCUUAAUGGGAGCUAGCGGAUGAAGUGAUGCAACACUGGAGCCGCUGGGAACUAAUUUGUAUGCGAAAGUAUAUUGAUUAGUUUUGGAGUACUCGUGGUCG
Outline: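 The eight P1ex-region nucleotides of an intron in the knt kanamycin-resistance gene on pET-22b(+) were all randomised and the library put into E. coli BL21(DE3). Six replicate transformations were grown overnight at 37°C or 30°C on LB agar with or without 25 μg/mL kanamycin, together with 100 μg/mL carbenicillin, 50 μM IPTG and 0.2% rhamnose. Colonies were pooled and amplicon-sequenced on an Illumina HiSeq 2500. Fitness from DiMSum is the error-weighted combination of wild-type-normalised replicate fold changes, kanamycin over none.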

Sequence	self-splicing fitness (ln) (30 °C)	self-splicing fitness (ln) (37 °C)
AAUUAGCAAUAUUACGGUUG	-2.53 ± 0.13	-0.897 ± 0.13
AAUUAGCAAUAUUACGUACU	-0.151 ± 0.089	0.263 ± 0.13
AAUUAGCAAUAUUACGUAUG	-1.04 ± 0.12	-1.13 ± 0.16
AAUUAGCAAUAUUACGUCUU	0.444 ± 0.091	0.46 ± 0.098
AAUUAGCAAUAUUACGUGAG	-1.71 ± 0.077	-0.654 ± 0.1
AAUUAGCAAUAUUACGUGAU	-1.87 ± 0.13	-1.56 ± 0.16
AAUUAGCAAUAUUACGUUAU	-2.88 ± 0.18	-1.11 ± 0.12
AAUUAGCAAUAUUACGUUCC	-3 ± 0.22	-1.32 ± 0.21
AAUUAGCAAUAUUACGUUUC	-2.89 ± 0.23	-1.57 ± 0.23
ACAAAGCAAUAUUACGAAGG	-2.52 ± 0.087	-1.75 ± 0.12
ACAAAGCAAUAUUACGAAGU	-2.04 ± 0.12	-2.06 ± 0.18
ACAAAGCAAUAUUACGACAG	-1.34 ± 0.066	-0.8 ± 0.084
ACAAAGCAAUAUUACGAGGU	-4.39 ± 0.2	-2.78 ± 0.18
ACAAAGCAAUAUUACGAUCG	-0.241 ± 0.074	0.193 ± 0.095
ACAAAGCAAUAUUACGCACG	-1.96 ± 0.12	-0.724 ± 0.1
ACAAAGCAAUAUUACGCCAA	-2.34 ± 0.24	-1.86 ± 0.18
ACAAAGCAAUAUUACGCCGC	-3.43 ± 0.31	-1.52 ± 0.28
ACAAAGCAAUAUUACGCGUG	-1.5 ± 0.043	-0.274 ± 0.057
ACAAAGCAAUAUUACGGACC	-1.02 ± 0.1	-1.5 ± 0.15
ACAAAGCAAUAUUACGGACU	-0.0658 ± 0.051	0.338 ± 0.079
ACAAAGCAAUAUUACGGCCG	-0.257 ± 0.09	0.0921 ± 0.14

Sequence	self-splicing fitness (ln) (30 °C)	self-splicing fitness (ln) (37 °C)
ACAAAGCAAUAUUACGGCCU	-0.338 ± 0.071	0.0409 ± 0.1
ACAAAGCAAUAUUACGGCGG	-0.226 ± 0.08	-0.154 ± 0.092
ACAAAGCAAUAUUACGGGAU	-1.19 ± 0.058	-0.492 ± 0.076
ACAAAGCAAUAUUACGGGGG	-2.81 ± 0.13	-2.19 ± 0.16
ACAAAGCAAUAUUACGGGGU	-3.15 ± 0.16	-2.59 ± 0.18
ACAAAGCAAUAUUACGUAAG	-1.19 ± 0.056	-0.79 ± 0.069
ACAAAGCAAUAUUACGUAGA	-3.68 ± 0.16	-1.66 ± 0.15
ACAAAGCAAUAUUACGUCCG	-0.802 ± 0.049	-0.466 ± 0.063
ACAAAGCAAUAUUACGUUGC	-3.26 ± 0.12	-2.57 ± 0.16
ACAAAGCAAUAUUACGUUUC	-4.84 ± 0.24	-2.49 ± 0.16
ACAAAGCAAUAUUACGUUUU	-3.53 ± 0.14	-2.95 ± 0.16
ACACAGCAAUAUUACGAACG	-0.869 ± 0.048	-0.185 ± 0.068
ACACAGCAAUAUUACGAAUU	-3.01 ± 0.084	-2.02 ± 0.1
ACACAGCAAUAUUACGAGCU	-0.901 ± 0.077	-0.406 ± 0.085
ACACAGCAAUAUUACGCACC	-0.476 ± 0.09	-0.151 ± 0.11
ACACAGCAAUAUUACGCAGG	-2.43 ± 0.093	-1.82 ± 0.1
ACACAGCAAUAUUACGGAAC	-4.07 ± 0.17	-2.49 ± 0.14
ACACAGCAAUAUUACGGAUU	-2.18 ± 0.096	-1.45 ± 0.12
ACACAGCAAUAUUACGGCGG	-0.95 ± 0.069	-0.0948 ± 0.088
ACACAGCAAUAUUACGGGAG	-2.04 ± 0.073	-2.15 ± 0.084
ACACAGCAAUAUUACGGGGU	-3.14 ± 0.11	-1.42 ± 0.087
